Results reported in the supplement of paper PMC7877785.
± gives the uncertainty stated by the source.

Assay: self-splicing fitness, log relative to wild type (ln ratio); higher = more splicing; Tetrahymena group I intron in knt gene, E. coli kanamycin selection, DiMSum; sequences stand for … in CUCUCU…GGAGGGAAAAGUUAUCAGGCAUGCACCUGGUAGCUAGUCUUUAAACCAAUAGAUUGCAUCGGUUUAAAAGGCAAGACCGUCAAAUUGCGGGAAAGGGGUCAACAGCCGUUCAGUACCAAGUCUCAGGGGAAACUUUGAGAUGGCCUUGCAAAGGGUAUGGUAAUAAGCUGACGGACAUGGUCCUAACCACGCAGCCAAGUCCUAAGUCAACAGAUCUUCUGUUGAUAUGGAUGCAGUUCACAGACUAAAUGUCGGUCGGGGAAGAUGUAUUCUUCUCAUAAGAUAUAGUCGGACCUCUCCUUAAUGGGAGCUAGCGGAUGAAGUGAUGCAACACUGGAGCCGCUGGGAACUAAUUUGUAUGCGAAAGUAUAUUGAUUAGUUUUGGAGUACUCGUGGUCG
Method in brief: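 Library with all eight P1ex-region intron nucleotides randomised, intron inside the knt kanamycin-resistance gene on pET-22b(+), in E. coli BL21(DE3). Cells grew overnight at 37°C or 30°C on LB agar with or without 25 μg/mL kanamycin (plus 100 μg/mL carbenicillin, 50 μM IPTG, 0.2% rhamnose), in six replicate transformations. Pooled colonies were amplicon-sequenced on Illumina HiSeq 2500. DiMSum fitness is the error-weighted combination of wild-type-normalised replicate fold changes, kanamycin versus none.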

Sequence: AGCUAGCAAUAUUACGCUAC
- self-splicing fitness (ln) (30 °C): -2.68 ± 0.48
- self-splicing fitness (ln) (37 °C): -2.77 ± 0.38

Sequence: ACGCAGCAAUAUUACGCAUU
- self-splicing fitness (ln) (30 °C): -3.81 ± 0.19
- self-splicing fitness (ln) (37 °C): -1.89 ± 0.12

Sequence: ACCUAGCAAUAUUACGGAAG
- self-splicing fitness (ln) (30 °C): -2.8 ± 0.23
- self-splicing fitness (ln) (37 °C): -2.38 ± 0.19

Sequence: GCAGAGCAAUAUUACGUCAU
- self-splicing fitness (ln) (37 °C): -1.4 ± 0.42

Sequence: UAGAAGCAAUAUUACGAAUA
- self-splicing fitness (ln) (30 °C): -1.14 ± 0.12
- self-splicing fitness (ln) (37 °C): -0.376 ± 0.12

Sequence: GAUCAGCAAUAUUACGGCGG
- self-splicing fitness (ln) (30 °C): -2.43 ± 0.13
- self-splicing fitness (ln) (37 °C): -2.06 ± 0.17

Sequence: UCGCAGCAAUAUUACGAGUA
- self-splicing fitness (ln) (30 °C): -2.36 ± 0.14
- self-splicing fitness (ln) (37 °C): -0.752 ± 0.12

Sequence: ACUGAGCAAUAUUACGGUGC
- self-splicing fitness (ln) (30 °C): -3.32 ± 0.19
- self-splicing fitness (ln) (37 °C): -1.9 ± 0.18

Sequence: CAAGAGCAAUAUUACGCGGU
- self-splicing fitness (ln) (30 °C): -3.05 ± 0.17
- self-splicing fitness (ln) (37 °C): -1.81 ± 0.21

Sequence: AGUCAGCAAUAUUACGUUCC
- self-splicing fitness (ln) (30 °C): -1.13 ± 0.1
- self-splicing fitness (ln) (37 °C): -0.187 ± 0.12

Sequence: GGUCAGCAAUAUUACGCUCG
- self-splicing fitness (ln) (30 °C): -0.0238 ± 0.095
- self-splicing fitness (ln) (37 °C): 0.341 ± 0.12

Sequence: UAGAAGCAAUAUUACGUUAA
- self-splicing fitness (ln) (30 °C): -3.14 ± 0.16
- self-splicing fitness (ln) (37 °C): -1.39 ± 0.15

Sequence: GGUAAGCAAUAUUACGAUGG
- self-splicing fitness (ln) (30 °C): -3.83 ± 0.39
- self-splicing fitness (ln) (37 °C): -2.64 ± 0.33

Sequence: AAAAAGCAAUAUUACGAAGG
- self-splicing fitness (ln) (30 °C): -3.57 ± 0.23
- self-splicing fitness (ln) (37 °C): -1.89 ± 0.23

Sequence: CUAGAGCAAUAUUACGAUUG
- self-splicing fitness (ln) (30 °C): -0.464 ± 0.071
- self-splicing fitness (ln) (37 °C): -0.493 ± 0.077

Sequence: CUUCAGCAAUAUUACGAUAC
- self-splicing fitness (ln) (30 °C): -3.22 ± 0.19
- self-splicing fitness (ln) (37 °C): -2.14 ± 0.33

Sequence: UCAAAGCAAUAUUACGAGGG
- self-splicing fitness (ln) (30 °C): -2.11 ± 0.12
- self-splicing fitness (ln) (37 °C): -1.03 ± 0.12

Sequence: AGAUAGCAAUAUUACGCUAC
- self-splicing fitness (ln) (30 °C): -2.97 ± 0.44
- self-splicing fitness (ln) (37 °C): -2.56 ± 0.38

Sequence: GGGUAGCAAUAUUACGCCGA
- self-splicing fitness (ln) (30 °C): -0.784 ± 0.16
- self-splicing fitness (ln) (37 °C): -0.0895 ± 0.11

Sequence: GAGUAGCAAUAUUACGCCGG
- self-splicing fitness (ln) (30 °C): -1.99 ± 0.35

Sequence: ACUGAGCAAUAUUACGGAUC
- self-splicing fitness (ln) (37 °C): -1.91 ± 0.35

Sequence: UUUGAGCAAUAUUACGAAGU
- self-splicing fitness (ln) (37 °C): -2.67 ± 0.3

Sequence: CACUAGCAAUAUUACGCUAG
- self-splicing fitness (ln) (30 °C): -3.17 ± 0.26
- self-splicing fitness (ln) (37 °C): -2.41 ± 0.27

Sequence: AAUAAGCAAUAUUACGCUGG
- self-splicing fitness (ln) (30 °C): -1.81 ± 0.17
- self-splicing fitness (ln) (37 °C): -1.5 ± 0.21

Sequence: GAUUAGCAAUAUUACGCAAC
- self-splicing fitness (ln) (30 °C): -3.22 ± 0.26
- self-splicing fitness (ln) (37 °C): -1.89 ± 0.19

Sequence: CCUGAGCAAUAUUACGCAGA
- self-splicing fitness (ln) (30 °C): -3.44 ± 0.23
- self-splicing fitness (ln) (37 °C): -1.96 ± 0.15

Sequence: GGAGAGCAAUAUUACGUGCU
- self-splicing fitness (ln) (30 °C): -2.88 ± 0.27

Sequence: CCGCAGCAAUAUUACGCGGG
- self-splicing fitness (ln) (30 °C): -4.07 ± 0.14
- self-splicing fitness (ln) (37 °C): -3.74 ± 0.12

Sequence: AUUUAGCAAUAUUACGAGCG
- self-splicing fitness (ln) (30 °C): -2.66 ± 0.23
- self-splicing fitness (ln) (37 °C): -1.05 ± 0.2

Sequence: ACUGAGCAAUAUUACGCUGC
- self-splicing fitness (ln) (37 °C): -1.98 ± 0.33

Sequence: UGUAAGCAAUAUUACGAGUU
- self-splicing fitness (ln) (30 °C): -2.78 ± 0.13
- self-splicing fitness (ln) (37 °C): -2.69 ± 0.23

Sequence: ACCUAGCAAUAUUACGGAGA
- self-splicing fitness (ln) (30 °C): -1.83 ± 0.17
- self-splicing fitness (ln) (37 °C): -2.45 ± 0.2

Sequence: UACGAGCAAUAUUACGUGAA
- self-splicing fitness (ln) (30 °C): -3.05 ± 0.2

Sequence: CCAUAGCAAUAUUACGAAAG
- self-splicing fitness (ln) (30 °C): -2.11 ± 0.12
- self-splicing fitness (ln) (37 °C): -0.18 ± 0.12

Sequence: CAAUAGCAAUAUUACGCAGU
- self-splicing fitness (ln) (30 °C): -3.56 ± 0.26
- self-splicing fitness (ln) (37 °C): -2.12 ± 0.21

Sequence: AGCAAGCAAUAUUACGAAAG
- self-splicing fitness (ln) (30 °C): -2.4 ± 0.23
- self-splicing fitness (ln) (37 °C): -1.36 ± 0.22

Sequence: CACGAGCAAUAUUACGUGCA
- self-splicing fitness (ln) (30 °C): -3.55 ± 0.18
- self-splicing fitness (ln) (37 °C): -3.24 ± 0.23

Sequence: AAUUAGCAAUAUUACGGAGA
- self-splicing fitness (ln) (30 °C): -3.3 ± 0.45
- self-splicing fitness (ln) (37 °C): -1.98 ± 0.36

Sequence: ACGUAGCAAUAUUACGGCCC
- self-splicing fitness (ln) (30 °C): -0.341 ± 0.15
- self-splicing fitness (ln) (37 °C): 0.0459 ± 0.25

Sequence: GCGCAGCAAUAUUACGGUCU
- self-splicing fitness (ln) (30 °C): -0.494 ± 0.075
- self-splicing fitness (ln) (37 °C): 0.0551 ± 0.095

Sequence: GCGUAGCAAUAUUACGGAUU
- self-splicing fitness (ln) (30 °C): -1.59 ± 0.13
- self-splicing fitness (ln) (37 °C): -0.574 ± 0.15

Sequence: UCCUAGCAAUAUUACGCAGA
- self-splicing fitness (ln) (30 °C): -1.87 ± 0.2
- self-splicing fitness (ln) (37 °C): -0.401 ± 0.15

Sequence: GAUAAGCAAUAUUACGGGCA
- self-splicing fitness (ln) (30 °C): -1.65 ± 0.12
- self-splicing fitness (ln) (37 °C): -0.177 ± 0.13

Sequence: UCGAAGCAAUAUUACGGGAC
- self-splicing fitness (ln) (30 °C): -3.19 ± 0.47
- self-splicing fitness (ln) (37 °C): -3.17 ± 0.33
